Biological target: human α-SNAP with an Avitag and a C-terminal 6xHis tag (human) (UniProt P54920)
Assay: BLI; Octet RED96, 25°C; 0.25 μM biotinylated α-SNAP loaded on streptavidin biosensor tips; analyte: purified Orai1 or Stim1 fragments at varying concentrations; PBS with 2 mg/ml BSA and 0.02% Tween-20; association 5 min, dissociation 10 min; double referencing; global fit to the 1:1 or 2:1 binding model

Sequence of human α-SNAP with an Avitag and a C-terminal 6xHis tag (human) (P54920 whole entry, the tested form may be a part): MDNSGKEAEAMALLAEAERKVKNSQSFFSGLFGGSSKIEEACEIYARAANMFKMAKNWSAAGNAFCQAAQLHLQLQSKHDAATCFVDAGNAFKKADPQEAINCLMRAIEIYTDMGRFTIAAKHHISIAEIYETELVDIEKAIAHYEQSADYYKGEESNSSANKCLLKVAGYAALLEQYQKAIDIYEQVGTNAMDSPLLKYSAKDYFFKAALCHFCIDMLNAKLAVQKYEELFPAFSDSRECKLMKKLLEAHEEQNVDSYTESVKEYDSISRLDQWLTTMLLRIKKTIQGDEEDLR

Row | Substance | Kd | koff | kon | KD1 (2:1 binding model, site 1) | KD2 (2:1 binding model, site 2) | koff1 (2:1 binding model, site 1) | koff2 (2:1 binding model, site 2) | kon1 (2:1 binding model, site 1) | kon2 (2:1 binding model, site 2)
1 | purified untagged Orai1 1–103 (from UniProt Q96D31 1-103) (domain or fragment) | 763 nM | 0.000117 s⁻¹ | 154 M⁻¹ s⁻¹ | – | – | – | – | – | –
2 | purified untagged Orai1 245–292 (from UniProt Q96D31 245-292) (domain or fragment) | 548 nM | 0.000595 s⁻¹ | 1080 M⁻¹ s⁻¹ | 314 nM | 202 µM | 0.000213 s⁻¹ | 0.0306 s⁻¹ | 678 M⁻¹ s⁻¹ | 152 M⁻¹ s⁻¹
3 | commercially synthesized Orai1 245–292 peptide (from UniProt Q96D31 245-292) | 369 nM | 0.000506 s⁻¹ | 1370 M⁻¹ s⁻¹ | 198 nM | 0.715 µM | 5.62e-05 s⁻¹ | 0.0279 s⁻¹ | 284 M⁻¹ s⁻¹ | 39000 M⁻¹ s⁻¹

Source: article PMC8519427
